# Test results from the DeepSol protein solubility set.
# Assay: soluble on expression in E. coli; label from the status in PepcDB or PDB records
row,Sequence,soluble on expression in E. coli
1,MSDRVIIAGGGIGGLASALTLHQIGVPCVVYEAAREMRPLGVGINLQPNAVRELLDLGITEADLDGVGLPAKEWALVGLNGNDIYAEPRGKAAGYRWPQYAVHRGRFHMLLNDKVIERLGADAVQLGRRVTSYRKTADGVVATVEHADGGTSEVSGALLIGADGIHSAVRAQMHPNQPPIHWGGAVMWRGTTWGKPTRSGASFIGLGTHRHRVVIYPISHPDPATGLSMLNWIAEVTLDNAEGWKQQGWFRQVPTSEFAHHFDGWVWDWLDVPAMIREADSAYENPMIDRDPVATWRDGPVVLIGDAAHAMYPTGSNGGTQAIVDARELGAAMVAHGATEAALAAFDAKLCGPISQLILRNRGAGPFGLLNLVDERCGGTFDNIDDVIPPAERAAFMAGYKAAAGFAIDHLNAAPPTIAPGARVKESAAALEHHHHHH,not soluble
2,GPLGSMINAKTKVIGLIGHPVEHSFSPIMHNAAFKDKGLNYVYVAFDVLPENLKYVIDGAKALGIVGFNVTIPHKIEIMKYLDEIDKDAQLIGAVNTIKIEDGKAIGYNTDGIGARMALEEEIGRVKDKNIVIYGAGGAARAVAFELAKDNNIIIANRTVEKAEALAKEIAEKLNKKFGEEVKFSGLDVDLDGVDIIINATPIGMYPNIDVEPIVKAEKLREDMVVMDLIYNPLETVLLKEAKKVNAKTINGLGMLIYQGAVAFKIWTGVEPNIEVMKNAIIDKITK,soluble
3,MCLEDSDAGASNEYDSSPAAWNKEDFPWSGKVKDILQNVFKLEKFRPLQLETINVTMAGKEVFLVMPTGGGKSLCYQLPALCSDGFTLVICPLISLMEDQLMVLKQLGISATMLNASSSKEHVKWVHAEMVNKNSELKLIYVTPEKIAKSKMFMSRLEKAYEARRFTRIAVDEVHCCSQWGHDFRPDYKALGILKRQFPNASLIGLTATATNHVLTDAQKILCIEKCFTFTASFNRPNLYYEVRQKPSNTEDFIEDIVKLINGRYKGQSGIIYCFSQKDSEQVTVSLQNLGIHAGAYHANLEPEDKTTVHRKWSANEIQVVVATVAFGMGIDKPDVRFVIHHSMSKSMENYYQESGRAGRDDMKADCILYYGFGDIFRISSMVVMENVGQQKLYEMVSYCQNISKCRRVLMAQHFDEVWNSEACNKMCDNCCKDSAFERKNITEYCRDLIKILKQAEELNEKLTPLKLIDSWMGKGAAKLRVAGVVAPTLPREDLEKIIAHFLIQQYLKEDYSFTAYATISYLKIGPKANLLNNEAHAITMQVTKSTQNSFRAESSQTCHSEQGDKKMEAENLYFQSHHHHHHDYKDDDDK,soluble
4,MGSDKIHHHHHHMLLVTSHDIQTALEKGIQYQKLTHLFGTLSLQETENHIILNYLPVDLKTEIGLLRAQCEISGTYKFIQDIYTMMGLKMPDMRIDLPFPKPSDPDTVAQYYAYYGDDLHFNSTHAAFSLSKNVLEIKIPSADIITHRIYEAKCIKEIERLNEQDHQIPPIIQYVQDYLELQQGIIPSMAETAFALKMPERTLRHQLQQLNTSYKQIREQIIKNKALKLMEYKEYSIEVIAEALGYSEPAAFNHAFKRWFGQSPRQYGKEFY,not soluble
5,MPKSAKRRASQPTGAETLVVVESPAKARSIQKMLGPGYEVRASLGHVVDLPERSLGVDVERDFAPTYEVKKDKKPVVEELKRAAEGKRLLIATDPDREGEAIGWHVARLLGRDPKEPLRVEFHEITPRVVRQAVEAPRPIDQNLVDAQQARRVLDRLLGYNLSPLLSLEFRKRALSAGRVQSVALRLVVEREEAIEAFRPEEYWVLRGVFAVEGGEAPLVATLHEVEGKRLWTGQGEKEGRLHLASEAEAHALAEALRKGSYRVAQVEVRERRKAPPPPFTTSTLQQAASSRLGYTAARTMRIAQRLYEGVDLPEGTVGLITYMRTDSVRVAPEAVAAAREVIGKAFGPEYLPEAPRAYKNRREGVQDAHEAIRPTDPKRTPESVRPYLSEEEYRLYELIWRRFLASQMRDALYEQTAVTLADLEGRYAFRASGSVLRFEGYLRAWGRDAEEEEEPPVPAVPEGVPARLEEVLEERRFTEPPPRYTDASLVKTMEELGIGRPSTYAPTLETLEKRGYVARKGRTLFPTPLGRQVTAYLRERFPQVVAYEFTARMEERLDEVEEGRVPWPKVVWEFYEPFLGELAQVPKKTCPRCGRPLELKVSRYGQFLGCTGYPECTYTEPLERREAEPIGEACPKCGRPLLRKEGRYGTFIACSGYPECDYTRDDGTPTGHTCPKCGGRVLEKRSRKGRPYYKCENNACDFLSFYPLLEEACPACGWPLVKKGEKALCLNPACPEHEPSLLPAPKEAKKGRSRGKGKPPLAPPKDWEELVPFLPGLSPEERRAVEALARGEALARGEALAEEEARLARRALFKLRMRKGKARKEPVRA,soluble
6,MTTAHRPTFHPARGGTARGEGDLSKLSNQYSSKDMPSHTKMKYRQTGQETEADLRKKDLRRELEDKERNAIREKRARDSASSSSSHSKRQRMDQIAAESAASVDADEAVDELNSSDDDDSDEDDTAALMAELEKIKKERAEEKAARDEEIKEKEEKQRMENILAGNPLLNDTPAGSSTSGGDFTVKRRWDDDVVFKNCAKGVEERKKEVTFINDAIRSEFHKKFMDKYIK,soluble
7,MKPNIHPEYRTVVFHDTSVDEYFKIGSTIKTDREIELDGVTYPYVTIDVSSKSHPFYTGKLRTVASEGNVARFTQRFGRFVSTKKGA,soluble
8,MLMPEMDRRRMMMMAGFGALAAALPAPTAWADPSRPAAPAGPTPAPAAPAAATGGLLFHDEFDGPAGSVPDPSKWQVSNHRTPIKNPVGFDRPQFFGQYRDSRQNVFLDGNSNLVLRATREGNRYFGGLVHGLWRGGIGTTWEARIKFNCLAPGMWPAWWLSNDDPGRSGEIDLIEWYGNGTWPSGTTVHANPDGTAFETCPIGVDGGWHNWRVTWNPSGMYFWLDYADGIEPYFSVPATGIEDLNEPIREWPFNDPGYKVFPVLNLAVGGSGGGDPATGSYPQEMLVDWVRVF,not soluble
9,MAHHHHHHMANAELVDAGCFITQMNELLLIDPLYINCTMTNYCNSYISGKEKLLPRERLNGIYFKNAKPGLWSSFAIRENNQACLKKTSNQETETDAENRNNNNSYNNVRNEMVLSFICFNNTEYMHEYLTVEKVDKLKWEKVKPNESHLRVGQADQYNSTVNIEYKNEKTGIFHHNKNELLPLENYFTNVLTIESGQVGLFCMESIKHSADLLFQKHEMNNISNKEELDNLFNQNMNDLYPWFEKICNLTLSSSVAVVDFIDMPIGCVCLSSSDCVVNYLCEVVRDEVTDEVWAIRVNFLSPLK,soluble
10,MHRASLICRLASPSRINAIRNASSGKSHISASTLVQHRNQSVAAAVKHEPFLNGSSSIYIEQMYEAWLQDPSSVHTSWDAYFRNVEAGAGPGQAFQAPPATAYAGALGVSPAAAQVTTSSAPATRLDTNASVQSISDHLKIQLLIRSYQTRGHNIADLDPLGINSADLDDTIPPELELSFYGLGERDLDREFLLPPTTFISEKKSLTLREILQRLKDIYCTSTGVEYMHLNNLEQQDWIRRRFEAPRVTELSHDQKKVLFKRLIRSTKFEEFLAKKWPSEKRFGLEGCEVLIPAMKQVIDSSSTLGVDSFVIGMPHRGRLNVLANVCRQPLATILSQFSTLEPADEGSGDVKYHLGVCIERLNRQSQKNVKIAVVANPSHLEAVDPVVMGKVRAEAFYAGDEKCDRTMAILLHGDAAFAGQGVVLETFNLDDLPSYTTHGAIHIVVNNQIGFTTDPRSSRSSPYCTDVGRVVGCPIFHVNVDDPEAVMHVCNVAADWRKTFKKDVIVDLVCYRRHGHNELDEPMFTQPLMYQRIKQTKTALEKYQEKILNEGVANEQYVKEELTKYGSILEDAYENAQKVTYVRNRDWLDSPWDDFFKKRDPLKLPSTGIEQENIEQIIGKFSQYPEGFNLHRGLERTLKGRQQMLKDNSLDWACGEALAFGSLLKEGIHVRLSGQDVQRGTFSHRHHVLHDQKVDQKIYNPLNDLSEGQGEYTVCNSSLSEYAVLGFELGYSMVDPNSLVIWEAQFGDFSNTAQCIIDQFISSGQSKWIRQSGLVMLLPHGYEGMGPEHSSARPERFLQMCNEDDEIDLEKIAFEGTFEAQQLHDTNWIVANCTTPANIYHLLRRQVTMPFRKPAVVFSPKSLLRHPMARSPVEDFQSGSNFQRVIPETGAPSQNPPDVKRVVFCTGKVYYDMVAARKHVGKENDVALVRVEQLSPFPYDLVQQECRKYQGAEILWAQEEHKNMGAWSFVQPRINSLLSIDGRATKYAGRLPSSSPATGNKFTHMQEQKEMMSKVFGVPKSKLEGFKA,not soluble
11,MAHHHHHHMRVRHKVRNAVLLKGGEADTVKPLFLLNKIKNRKLQKRNNVTLHMDNSNEDTSRLSLLKNLDDESKVITQSPEWNEKMPLLEITNLHAMEVEGGKEILKGINLTIFLGEKHTIMGRNGSGKSTLAKVIAGHPYYKVTSGTIKFKGLNLSELPVNVRSLCGIFLAFQYPVELPMVKNNEFLRAALNSHRRQRNEPEISATEFDLLMIEEIKKVGLSSEFLDRPVNYGFSGGEKKRNEILQMLILKPSFCILDETDSGLDVDSFKLTSNVITNFSNEKNSFLIVTHYKKLLELLRPNFIHIMHQGKIIESGDYSLVDKIEAKGYAQFVKDS,not soluble
12,MGSDKIHHHHHHMCYTPACLFSRVLHSSTRWRGGRVVECVALEKRSTRKGTVGSNPTLFAKKEAPRPAQQAGFSFVDSVSQVSGAAIVQPMTRFAWTPETIPWQETAPDGTRYALLEGVREAGTFTYAFFLPAGFWDEAHWHSTDARVFVMQGELRLGYGDRLDKEAATSYPAGSALLVPAEHRHHDGAEVDTLILGVASGSWFTRYVNSANQGSAGTV,not soluble
13,MNRLERIIQLVSQKKKIDVNSLSEQLDVSKVTIRKDLDKLESKGLLRREHGYAVLNSGDDLNVRLSYNYNIKRRIAEKAAELVQDNDTIMIESGSTCALLAEVLCQTKRNIKVITNSCFIANYIRQYSSCQIILLGGYYQPNSEVTVGPLLKEMISLFHVNRVFVGTDGFNKDLGFMGKDMMRSEGVRYMADAAEEVVILTDSSKFSKTSLVHQLSLADVNRVITDQALDKQTQELLSASGLVLDFVSLEHHHHHH,not soluble
14,METDNVLKRILEIEHGFVHILDAAKEILSSSSEERSFAIASEFFDHEAYQPRMLATAILGHLAGTNSEALLFLKDRVSLDMNWRVQEMLAKAFDTFCKEQGYEKSLPVIREWLDSDNANVVRAVTEGLRIWTSRPFFKENPCLAIEWLSRHRGHESEYVRKSVGNALKDISKKHKESVAEELKKWDLSDPLVLFTYKHASKHPDKDIKKQ,not soluble
15,MSVTLHTTSGDIKIELYVDDAPKACENFLALCASDYYNGCIFHRNIKDFMVQTGDPTHSGKGGESIWGGPFEDEFVSALKHDSRGCVSMANNGPDSNRSQFFITYAKQAHLDMKYTLFGKVIDGFDTLEEIETIKVDNKYRPLVQQK,not soluble
16,GMREMQIMSQPEQSRLDLFIDRMVSQRACLEHAIAQTAGLSGPVYELGLGNGRTYHHLRQHVQGREIYVFERAVASHPDSTPPEAQLILGDIRETLPATLERFGATASLVHADLGGHNREKNDRFARLISPLIEPHLAQGGLMVSSDRMYFEGLEELPLPPGAVVGRCFIYRRG,soluble
17,MSLERPEEYLPNIFEGKKGVIVDYGCGNGFYCKYLLEFATKLYCIDINVIALKEVKEKFDSVITLSDPKEIPDNSVDFILFANSFHDMDDKQHVISEVKRILKDDGRVIIIDWRKENTGIGPPLSIRMDEKDYMGWFSNFVVEKRFNPTPYHFGLVLKRKTSEGHHHHHPDPNSSSVDKLAAALEHHHHHH,soluble
18,DYESPIVNVVEACAPAVVKIDVVKTVKTSFFDPYFEQFFKKWFGELPPGFERQVASLGSGFIFDPEGYILTNYHVVGGADNITVTMLDGSKYDAEYIGGDEELDIAVIKIKASDKKFPYLEFGDSDKVKIGEWAIAIGNPLGFQHTVTVGVVSATNRRIPKPDGSGYYVGLIQTDAAINPGNSGGPLLNIHGEVIGINTAIVNPQEAVNLGFAIPINTVKKFLDTILTQKKVEKAYLGV,soluble
